In article PMC9224490, “PLAAT1 Exhibits Phosphatidylcholine:Monolysocardiolipin Transacylase Activity” (International Journal of Molecular Sciences, 2022):

How the values were obtained:
[1] = substrate: CCCCCCCC/C=C\CCCCCCCC(=O)OC[C@H](COP(=O)([O-])OCC[N+](C)(C)C)OC(=O)CCCCCCC/C=C\CCCCCCCC; test: radiochemical PC:MLCL transacylase assay, TLC and scintillation counting, Lineweaver-Burk; assay type: biochemical, Mus musculus; conditions: labelled compound (3H), acyl donor 0-200 μM, acceptor MLCL 100 μM (methods text: 40 μM final), pH 8, 37 °C, 2 mM DTT, 0.1% Nonidet P-40, enzyme on anti-HA beads, apparent
Excerpt: (§1) radiochemical PC:MLCL transacylase assay, TLC and scintillation counting, Lineweaver-Burk on PLAAT1

[2] = substrate: CCCCCCCCCCCCCCCCCC(=O)OC[C@H](COP(=O)([O-])OCC[N+](C)(C)C)OC(=O)CCCCCCCCCCCCCCCCC; test: as above; assay type: biochemical, Mus musculus; conditions: labelled compound (3H), acyl donor 0-200 μM, acceptor MLCL 100 μM (methods text: 40 μM final), pH 8, 37 °C, 2 mM DTT, 0.1% Nonidet P-40, enzyme on anti-HA beads, apparent
Excerpt: as §1

B1: PLAAT1 (Mus musculus) (protein)
chain: MAVNDCFSLTYPHNPHPGDLIEVFRPCYQHWALYLGDGYVINIAPIDGIRSSFTSAKSVFSTKALVKMQLLKDVVGNDTYRINNKYDTTYPPLPVEEVIQRSEFPIGQEVAYDLLVNNCEHFVTLLRYGEGVSEQANRAIGTIGLVAAGIDIFTFLGLFPKRQRTKY
notes: complete coding region; C-terminal 6xHis, HA-tagged; adenoviral expression in HEK-293; immunopurified on anti-HA beads
Km [1]: 16 µM | Vmax [1]: 0.61 µmol/min/mg | Km [2]: 126 µM | Vmax [2]: 1.61 µmol/min/mg
